Source: publication PMC12527216

Assays:
[1] = target: recombinant soluble CD4 engineered with a deletion in the transmembrane region but retaining the cytoplasmic tail (UniProt P01730); assay: ELISA; as a1, but HIVBaL treated beforehand with 1% (w/w) (110 mM) L-lactic acid at pH 3.8 for 60 min at 37°C
[2] = target: recombinant soluble CD4 engineered with a deletion in the transmembrane region but retaining the cytoplasmic tail (UniProt P01730); assay: ELISA; as a1, but HIVBaL treated beforehand with acidified media at pH 3.8 (HCl adjusted) for 60 min at 37°C

virion-associated trimeric gp120 envelope glycoprotein of HIV-1 BaL (on HIVBaL virions) (natural protein)
fold reduction in rCD4 binding relative to untreated HIV-1 [1]: 2 fold | fold reduction in rCD4 binding relative to untreated HIV-1 [2]: 2 fold
